Reference: publication PMC12399645 (Frontiers in Immunology, 2025)

B1: KBA2401 (antibody, V domains shown)
VH: EVQLVQSGAEVKKPGESLKISCKGSGYTFSYFWIGWVRQMPGKGLEWMGIIYPGDSDTRYSPSFQGQVTISADKSISTAYLQWSSLKASDTAMYYCARVGIEMATTYFGFWGQGTMVTVSS
VL: SYVLTQPPSVSVAPGQTARITCGGNNIGSKSVHWYQQRPGQAPVLVVYDDSDRPSEIPERFSGSSSGNTATLTISTVEAGDEADYYCQVWDSSTDHPGVFGGGTKLTVL
notes: copies: 2 + 2
B2: KBA2402 (antibody, V domains shown)
VH: EVQLVESGGGLVQPGRSLGLSCTTSGFTFGDFAMSWFRQAPGKGLEWVGFIRSKAYGGATQYAASVKGRFTISRDDSKSIAYLQMNSLKTEDTAVYYCTRAGEMATTVNRQFDYWGQGTLVTVSS
VL: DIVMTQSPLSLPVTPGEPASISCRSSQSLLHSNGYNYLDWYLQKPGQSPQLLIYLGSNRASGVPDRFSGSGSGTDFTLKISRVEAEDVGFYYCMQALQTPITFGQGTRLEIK
notes: copies: 2 + 2
B3: KBA2403 (antibody, V domains shown)
VH: EVQLVESGGGLVQPGGSLRLSCVASGIIVSRNYMNWVRQAPGKGLEWVSVLYSGGTTEYADSVKGRFTISRDNSKNTLFLQMSSLRVEDTAVYFCAREGYGMDVWGQGATVTVSS
VL: DIQLTQSPSFLSASVGDRVTITCRAGQGISTYLAWYQQKPGKAPKLLIYSASTLQSGVPSRFSGSGSGTEFTLTISSLQPEDFATYYCQQLNNYPPAFGGGTKVEIK
notes: IgG1 format; copies: 2 + 2
B4: KBA2404 (antibody, V domains shown)
VH: EVQLVESGGGLVQPGGSLRLSCAASGFTVSSNYMSWVRQAPGKGLECVSVIYSGGSTYYGDSVKGRFTISRDNSKNRLYLQMHSLRAEDTAVYFCARIVSDAFDIWGQGTMVTVSS
VL: DIQMTSLLSPLSASVGDRVTITCRASQNINRWLAWYQQKPGKAPKLLIYMASNLESGVPSRFSGSGSGTEFSLTISSLQPDDLATYYCQQYNSYWTSYTFGQGTKLEIK
notes: IgG1 format; copies: 2 + 2
B5: KBA2402_EVO14 (antibody, V domains shown)
VH: EVQLVESGGGLVQPGRSLGLSCTTSGFTFGDFAMSWFRQAPGKGLEWVGFIRSKAYGGATQYAASVKGRFTISRDDSKSIAYLQMNSLKTEDTAVYYCTRAGEMATTVNRQFDYWGQGTLVTVSS
VL: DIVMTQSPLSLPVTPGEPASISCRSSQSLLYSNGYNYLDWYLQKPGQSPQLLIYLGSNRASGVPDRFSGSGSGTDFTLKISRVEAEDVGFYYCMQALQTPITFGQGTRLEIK
notes: copies: 2 + 2
B6: KBA2402_EVO17 (antibody, V domains shown)
VH: EVQLVESGGGLVQPGRSLGLSCTTSGFTFGDFAMSWFRQAPGKGLEWVGFIRSKAYGGATQYAASVKGRFTISRDDSKSIAYLQMNSLKTEDTAVYYCTRAGEMATTVNRQFDYWGQGTLVTVSS
VL: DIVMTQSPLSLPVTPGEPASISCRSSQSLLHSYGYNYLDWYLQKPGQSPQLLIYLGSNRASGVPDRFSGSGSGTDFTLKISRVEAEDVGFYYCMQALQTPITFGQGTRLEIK
notes: copies: 2 + 2

These binders were tested against SARS-CoV-2 spike trimer protein, Wild-type (SARS-CoV-2, original Wild-type …, UniProt P0DTC2, biotin on the Avi-tag (BirA ligase)) (assay: ELISA). Conditions: both partners purified.
B1: binds.
B2: binds.
B3: binds.
B4: binds.

Same assay, conditions: one partner purified
B5: binds.
B6: binds.
